Key:
[1] = biological target: recombinant human TSP fragment of ~140 kDa engineered to lack the N-terminal heparin-binding domain (human); assay: sandwich ELISA, Ab-4 capture, Ab-8 detection; analyte at 12.50 ng/mL
[2] = biological target: human platelet thrombospondin (thrombospondin-1) (human) (UniProt P07996); assay: as above
[3] = biological target: recombinant human TSP fragment of ~140 kDa engineered to lack the N-terminal heparin-binding domain (human); assay: sandwich ELISA, Ab-4 capture, Ab-8 detection; analyte at 50.00 ng/mL
[4] = biological target: human platelet thrombospondin (thrombospondin-1) (human) (UniProt P07996); assay: as above
[5] = biological target: recombinant human TSP fragment of ~140 kDa engineered to lack the N-terminal heparin-binding domain (human); assay: sandwich ELISA, Ab-4 capture, Ab-8 detection; analyte at 3.125 ng/mL
[6] = biological target: human platelet thrombospondin (thrombospondin-1) (human) (UniProt P07996); assay: as above
[7] = biological target: recombinant human TSP fragment of ~140 kDa engineered to lack the N-terminal heparin-binding domain (human); assay: sandwich ELISA, Ab-4 capture, Ab-8 detection; analyte at 200.0 ng/mL
[8] = biological target: human platelet thrombospondin (thrombospondin-1) (human) (UniProt P07996); assay: as above
[9] = biological target: recombinant human TSP fragment of ~140 kDa engineered to lack the N-terminal heparin-binding domain (human); assay: sandwich ELISA, Ab-4 capture, Ab-8 detection; analyte at 100.0 ng/mL
[10] = biological target: human platelet thrombospondin (thrombospondin-1) (human) (UniProt P07996); assay: as above
[11] = biological target: recombinant human TSP fragment of ~140 kDa engineered to lack the N-terminal heparin-binding domain (human); assay: sandwich ELISA, Ab-4 capture, Ab-8 detection; analyte at 6.250 ng/mL
[12] = biological target: human platelet thrombospondin (thrombospondin-1) (human) (UniProt P07996); assay: as above
[13] = biological target: recombinant human TSP fragment of ~140 kDa engineered to lack the N-terminal heparin-binding domain (human); assay: sandwich ELISA, Ab-4 capture, Ab-8 detection; analyte at 25.00 ng/mL
[14] = biological target: human platelet thrombospondin (thrombospondin-1) (human) (UniProt P07996); assay: as above

Chain of UniProt P07996 (P07996 19-1170 T523A): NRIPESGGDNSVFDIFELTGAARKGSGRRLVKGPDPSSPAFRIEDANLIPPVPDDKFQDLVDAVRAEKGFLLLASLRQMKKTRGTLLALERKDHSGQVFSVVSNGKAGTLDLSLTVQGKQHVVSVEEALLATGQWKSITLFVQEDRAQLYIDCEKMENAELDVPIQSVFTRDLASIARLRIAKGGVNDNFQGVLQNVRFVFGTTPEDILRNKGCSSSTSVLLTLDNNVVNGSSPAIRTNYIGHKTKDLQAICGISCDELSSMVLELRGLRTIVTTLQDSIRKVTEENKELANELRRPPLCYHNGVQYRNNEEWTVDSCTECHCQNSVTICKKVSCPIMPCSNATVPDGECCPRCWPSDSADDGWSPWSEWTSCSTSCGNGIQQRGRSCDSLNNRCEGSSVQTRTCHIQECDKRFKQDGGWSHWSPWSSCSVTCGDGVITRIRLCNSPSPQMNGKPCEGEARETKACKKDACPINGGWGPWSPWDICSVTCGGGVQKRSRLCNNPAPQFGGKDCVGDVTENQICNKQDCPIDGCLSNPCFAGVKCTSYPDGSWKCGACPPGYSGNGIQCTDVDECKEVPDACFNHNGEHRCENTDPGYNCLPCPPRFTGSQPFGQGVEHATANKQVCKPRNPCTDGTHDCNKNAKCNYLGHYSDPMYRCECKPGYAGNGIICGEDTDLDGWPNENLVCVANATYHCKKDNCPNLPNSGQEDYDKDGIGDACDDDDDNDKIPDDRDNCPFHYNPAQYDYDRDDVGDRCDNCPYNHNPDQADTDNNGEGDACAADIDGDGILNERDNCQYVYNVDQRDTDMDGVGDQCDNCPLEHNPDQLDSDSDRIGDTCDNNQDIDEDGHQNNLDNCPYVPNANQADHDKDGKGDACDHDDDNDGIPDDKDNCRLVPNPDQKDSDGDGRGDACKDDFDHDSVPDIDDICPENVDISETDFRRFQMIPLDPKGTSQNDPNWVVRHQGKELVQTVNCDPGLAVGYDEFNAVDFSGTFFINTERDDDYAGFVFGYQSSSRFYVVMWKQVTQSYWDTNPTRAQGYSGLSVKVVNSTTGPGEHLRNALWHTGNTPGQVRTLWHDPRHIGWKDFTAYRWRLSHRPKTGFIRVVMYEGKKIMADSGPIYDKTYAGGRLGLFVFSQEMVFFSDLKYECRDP

## TSP Ab-4 (Clone A6.1) (antibody)
[1]
  ELISA OD-450: 0.662 OD-450
[2]
  ELISA OD-450: 0.713 OD-450
[3]
  ELISA OD-450: 1.8 OD-450
[4]
  ELISA OD-450: 1.57 OD-450
[5]
  ELISA OD-450: 0.279 OD-450
[6]
  ELISA OD-450: 0.345 OD-450
[7]
  ELISA OD-450: 2.56 OD-450
[8]
  ELISA OD-450: 2.5 OD-450
[9]
  ELISA OD-450: 2.2 OD-450
[10]
  ELISA OD-450: 2.09 OD-450
[11]
  ELISA OD-450: 0.4 OD-450
[12]
  ELISA OD-450: 0.514 OD-450
[13]
  ELISA OD-450: 1.17 OD-450
[14]
  ELISA OD-450: 1.08 OD-450

Source: patent publication US20050065324A1
